Where two headings read alike, the source gives them in different places.
B1: ZKA15 (antibody, V domains shown)
VH: QVQLQESGPGLVKPSETLSLTCTVSGGFINSYYWSWIRQPAGKGLEWIGRIYKSGSTNYNPSLKSRVTMSLDTSKYQFSLKLRSVTAADTAVYYCARDPYGDYVKAFDIWGQGTMVTVSS
VL: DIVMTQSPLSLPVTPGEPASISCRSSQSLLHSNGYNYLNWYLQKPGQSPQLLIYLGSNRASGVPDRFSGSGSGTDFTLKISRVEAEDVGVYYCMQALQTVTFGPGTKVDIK
B2: ZKA25 (antibody, V domains shown)
VH: EVQLVESGGGLVRPGGSLRLSCAASGFTFRSHWMSWVRQAPGKGLEWVANIKEDGYEKYYVDSVKGRFTISRDNAKNSLYLQMKSLRAEDTAVYYCARDLRVYSGRGFDPWGQGTLVTVSS
VL: not shown
B3: ZKA35 (antibody, V domains shown)
VH: QVQLQESGPGLVKPSQTLSLTCTVSGGSISTGGYYWSWIRQHPGKGLEWIGYIYYSGNTYYNPSLKSRVTISVDTSKKQFSLKLSSVTAADTAVYYCAKGGGRERPFDYWGQGTLVTVSS
VL: QSVLTQPPSASGTPGQRVTISCSGSSSNIGRNYVDWYQQLPGTAPKLLIYRNNQRPSGVPERFSGSKSGTSASLAISGLRSEDEADYYCVAWDDSRSGFVVFGGGTKVTVL

How the values were obtained:
Test in all cases: ELISA
YFV NS1 = biological target: YFV NS1
TBEV NS1 = biological target: TBEV NS1
ZIKV NS1 [1] = biological target: ZIKV NS1 (Zika virus (ZIKV))
WNV NS1 = biological target: WNV NS1
JEV NS1 = biological target: JEV NS1
ZIKV NS1 [2] = biological target: ZIKV NS1 (Zika virus (ZIKV)); remark: listed apart in the source

Binder	EC50 (YFV NS1)	EC50 (TBEV NS1)	EC50 (ZIKV NS1 [1])	EC50 (WNV NS1)	EC50 (JEV NS1)	EC50 (ZIKV NS1 [2])
B1	2780 ng/mL	4610 ng/mL	3 ng/mL	3220 ng/mL	5500 ng/mL	2.76 ng/mL
B2	–	–	2 ng/mL	–	–	2.44 ng/mL
B3	–	–	2 ng/mL	–	–	1.74 ng/mL

From patent US20190256582A1 (published 2019)
